Publication PMC2577339 (Nucleic Acids Research, 2008)

Target: the molecule itself
Test: glycerol gradient sedimentation + SEC

B1: Topoisomerase IIα (enzyme)
chain: MEVSPLQPVNENMQVNKIKKNEDAKKRLSVERIYQKKTQLEHILLRPDTYIGSVELVTQQMWVYDEDVGINYREVTFVPGLYKIFDEILVNAADNKQRDPKMSCIRVTIDPENNLISIWNNGKGIPVVEHKVEKMYVPALIFGQLLTSSNYDDDEKKVTGGRNGYGAKLCNIFSTKFTVETASREYKKMFKQTWMDNMGRAGEMELKPFNGEDYTCITFQPDLSKFKMQSLDKDIVALMVRRAYDIAGSTKDVKVFLNGNKLPVKGFRSYVDMYLKDKLDETGNSLKVIHEQVNHRWEVCLTMSEKGFQQISFVNSIATSKGGRHVDYVADQIVTKLVDVVKKKNKGGVAVKAHQVKNHMWIFVNALIENPTFDSQTKENMTLQPKSFGSTCQLSEKFIKAAIGCGIVESILNWVKFKAQVQLNKKCSAVKHNRIKGIPKLDDANDAGGRNSTECTLILTEGDSAKTLAVSGLGVVGRDKYGVFPLRGKILNVREASHKQIMENAEINNIIKIVGLQYKKNYEDEDSLKTLRYGKIMIMTDQDQDGSHIKGLLINFIHHNWPSLLRHRFLEEFITPIVKVSKNKQEMAFYSLPEFEEWKSSTPNHKKWKVKYYKGLGTSTSKEAKEYFADMKRHRIQFKYSGPEDDAAISLAFSKKQIDDRKEWLTNFMEDRRQRKLLGLPEDYLYGQTTTYLTYNDFINKELILFSNSDNERSIPSMVDGLKPGQRKVLFTCFKRNDKREVKVAQLAGSVAEMSSYHHGEMSLMMTIINLAQNFVGSNNLNLLQPIGQFGTRLHGGKDSASPRYIFTMLSSLARLLFPPKDDHTLKFLYDDNQRVEPEWYIPIIPMVLINGAEGIGTGWSCKIPNFDVREIVNNIRRLMDGEEPLPMLPSYKNFKGTIEELAPNQYVISGEVAILNSTTIEISELPVRTWTQTYKEQVLEPMLNGTEKTPPLITDYREYHTDTTVKFVVKMTEEKLAEAERVGLHKVFKLQTSLTCNSMVLFDHVGCLKKYDTVLDILRDFFELRLKYYGLRKEWLLGMLGAESAKLNNQARFILEKIDGKIIIENKPKKELIKVLIQRGYDSDPVKAWKEAQQKVPDEEENEESDNEKETEKSDSVTDSGPTFNYLLDMPLWYLTKEKKDELCRLRNEKEQELDTLKRKSPSDLWKEDLATFIEELEAVEAKEKQDEQVGLPGKGGKAKGKKTQMAEVLPSPRGQRVIPRITIEMKAEAEKKNKKKIKNENTEGSPQEDGVELEGLKQRLEKKQKREPGTKTKKQTTLAFKPIKKGKKRNPWSDSESDRSSDESNFDVPPRETEPRRAATKTKFTMDLDSDEDFSDFDEKTDDEDFVPSDASPPKTKTSPKLSNKELKPQKSVVSDLEADDVKGSVPLSSSPPATHFPDETEITNPVPKKNVTVKKTAAKSQSSTSTTGAKKRAAPKGTKRDPALNSGVSQKPDPAKTKNRRKRKPSTSDDSDSNFEKIVSKAVTSKKSKGESDDFHMDFDSAVAPRAKSVRAKKPIKYLEESDEDDLF
With B1 the “stoichiometry N” value was 2.
